According to the domain aggregation screens of Martell et al. (2025):

Experiment: soluble fraction after stress (log2 fold change); higher = more stays soluble; pooled small domains, quantitative proteomics
Conditions: stress: 75 degC
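Note: 20 min heating vs room temperature control held 20 min.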

Sequence | soluble fraction (log2)
HMPTSILEKILNSAAEQFTRYGFKTITMDDIARHAGVSKKTLYQHFETKLDIIVAAVTHFHTMKF | -1.62
HMPTYEEAKTYLKAAFEHIVAAGRDVGELVEFAFAKSGDAVAPYLRRFLSDVHEGRITIQGLTESAKLAV | 0.292
HMPVEQVWHIAEAGKTKGPFSRASMGRMSADGALTRDTLVWTAGQDGWKKAADVTALATLFT | 0.0108
HMPVFYATNRQKTTIHNLKRKKGLDDDAYRATIYSFTHGRTDSSKYMYKYEAAELIQKWLDPE | -1.49
HMPVGVPGVVYNTDSLNVRKGAGTNYDIVSKLKRGSVIEVLEQTAVDGTVWGRIAEGWVNMEYVSL | -1.04
HMPVSDLQSALRNTLSKGDATDPAFRQRVYRAAMDALERATGSESDPQRRSEQKQRLIAVIRDMEASYRR | 0.157
HMPVTKSARQSRIGELIAREPVRSQSELAARLADDGIVVSQGTLSKDLLELGAVRVRTSSGELAYALL | 0.0547
HMPWLIAVTVDGVNLPRFLRRAGEMGLLLTGVRIRGKHLSAFAREDDVPPLRMMAENGGWRFSVGN | -2.23
HMPYEHQRAVGALIRRLREQQGWSQRALADWVHMDQSAVSRVETGQRSVTAEELGRFADALHVSTDALVR | -0.263
HMPYFLKQSNTRSKGLYLQIYHSFYVPGKGSRNKSYKAIGYVSELIKNGIEDPITYAKNLVDELNNNSSTP | -3.82
HMPYPSPADLARMDELIAWVKDEGRLPRDRSGQRSERSMARWLAARRREAAEGTLDPAYRDGLAQVPGWR | -0.497
HMPYSAAVTFLDDAKQPMVNYNYRLIAENGIEVSGITDEFGKTQPIQTDQREKVDLYIADLPN | 0.693
HMQAALEVQASAGVLAPVPPDQRQALLDTLAQDPRPGYQHEAGRVYGFPFGGFEVRFTVSDGLLTVLSAYK | -1.82
HMQAATQVNIVGLFSNKAVVIINGGKPKTLSVGQTSEGVKLLAADSQTATLQIEGKTQQLGMGQAASVGG | -0.758
HMQAESLTVVRSAELKADRFLDAATLQTLQTGQVVESLRTESGWVQVRIAGQQGWVRAMNVKGA | -1.1
HMQAITVNNEGKIFLNTIPVTLEELSSKLESLKSSTPEFPVVIRGDSGSQYQGIMDVLNVVGRLGITQIGL | -0.708
HMQAKDVEVPDYVGKSFVSIKENNPNDFKFEVKSEYDESKEMGVILDQEPKGGSMKVKSGSTITVTV | 0.156
HMQASPADLLSDRELEVFQLTGEWKTTRQIAQELHLSVKTIEYYREQIKRKLNLKSAAELTQHATAWVQRG | -2.93
HMQDAVASEKIQLMSEALHARDTGDLLLAKEKVEKLIALAPNDKNIQALLLTINQSIEDKGL | -0.112
HMQDIDIVDLKRISELIYQKYNYDFRNYAMSSFKRRVQRIIELKKLTVDGLIKRLNDTPSFINEFLDELTV | -0.014
HMQDNLKKYMDKLSQRDAELIVYKYLWNMSEKEISEMFHIKQEQVHVYVGRAKKRLFKIIKKEME | -0.425
HMQDRDKNIEEGRQLVLHEMDRLDLVDEPLHDVARQLNMKAVEDMFAAVGAGDLRLGQIIHQLLKQADTN | -0.215
HMQDSIYYAQYRINIRNMPSSEGMVISRASVGEALEVLDWQEQWSKVRKQSGVEGYVASRLLTK | -2.34
HMQDTIDLVIQVNGKLRGQMNVPKDTDRATIEQLAINLENVQKIVAGNAIKKIIIVPGRLINIVVSKNL | -2.78
HMQDTYQVKLLTNLNIRKSPNGTIVQKGGAKKGIIYTIVETSGTWGRLKSNAGWISVSDKYVTK | -3.58
HMQDVKRYLVNSNQLNVRTGPGKEFEISESLNKGDAVTLLHKESNGWWEVITSTGQGYVYSSMLTKDPW | -0.735

Sequence | soluble fraction (log2)
HMQDVVERIKKYKQLFSITSEELSKRSGIPLGTLNKILSSSTKSIKTETLAAIAKGLDVSVSDLVGREK | -0.251
HMQEAGKWLKKLRTERKITLEQLSKKTGLSVGFLSQFERGLTSIAIDTLEKIAAVFNVTIDYFISP | 0.0548
HMQEEFVAPDVKDGAIVLHKAFGEGTVTKIDKAQKHIRVTFGVGEKTFIFPDAFKQGFLRMKG | 0.303
HMQEERLTFDTLLGISGIGPRLALAVLSRFTPGSLAAAVDAGDTKAFSAVPGVGNRTASRIILELKGKL | -0.748
HMQEGPGLVPDFRGQTMREVLRGGQSLGVRVAVDGTGLAVAQTPEPGSPLNKVSQVTVSFRPP | 0.0233
HMQEINLIGVTGNDLERSALVKLLDGEIIKLSVGDNLNGGRVVDISAVTLTYLKSGQSITLKLPK | -2.9
HMQELGVISEGKYNIELNMVSWNDREPKYDIRSWAPDHSRMGKGISLTEEEMERLVELWNTRNE | -0.441
HMQELKWERNYKLVQDYIKQYGVLPSKNTKYANVSIGRWLTNQHELVKEDNLAPERFEKIKELDT | -0.297
HMQENDLGAVEKIVDDVLHDPKNAQAVADFKAGSEKVLGFLTGQVMKASRGKANPSVVQEVLRQKLKN | -0.314
HMQENVIIYPNPTKSVIYLSEKVEFILYNILGEIIFIGDNNKIDLNSFDNGVYIFESGNVRTQIIK | 0.0395
HMQEQIVQGIVKYFDAEKQFGFIAGDDGVDRFFNAKSIQGNAVKTGDRVRFLAISHIRGPRALKISA | -1.24
HMQEQSSYVGQFGTAATTLRPSGTVELEDGTRIDVVTVGEFIEKGEPVQVVRKDGTWLVVEKRRSK | 0.976
HMQERKYTVSFNTNGGSTINDQKITSGNVIISPGAPKRSGYTFVGWYYHGQPFDLNTKINQDYVLVAKWIK | -2.49
HMQETILFGQQKAINNLSSDTGLSENDLDSYLKKRYKKPLYQLTQSEGADIINGFQDGSLSKNSILDYIKP | 0.173
HMQEVKVRLKPDYLGEVLIKVISDKGELKAELFVSNSQVRSLLRAYAVEFQNQIRDQGYNFSEINVYR | -0.738
HMQFAEIPNFSEMALQILRLQADGLSITKIAEALHMNPRTVKYHAQENYRKLQASNKSEALLAARNLNL | -1.85
HMQFEIGDTVRVHVNIREGERERVQMFEGTVIAKRGSGVSETFTVRRVSYGVGVERVFPVNSPNV | 0.437
HMQFETVQDAFNHYRNASLEEIESRAAEIKGIIESDPEADVRALNIEIEGLHQAKQNILEKQKTK | -0.179
HMQFLGKVTVTHARQANLRAQPSMDAAIVGKVNPGEVYNVVSIPKTSWYEIQLQNGKTVFIAAGMVSFRM | -0.441
HMQFSAVVLDMETRRQVAGVAVYINPKGVVKTDMRGRFVIDGAFNSVTLVRQGYESLTLERSEMTDSIWM | -1.64
HMQGEASDAQLKAIFAIARKLGITDDFEVHRKASRLAGVPEPEVLPSLKSLTYAQASAVIKALQEELE | 0.248
HMQGENDVTIDPKKLTIGDLAKEISKIEDSEELNNILVAEKEGKGRKGAINAITERIENVSGGTG | 0.0455
HMQGLIGEQKAIQIALSRVPGAKPEHVRELKLDYDDGMQLYEGEIFYNFREYEFEINAVTGEVVGWEI | -1.01
HMQHRSRALHLQEELVRRYYDQAIAPFMIFWEMKANVTLDQLKELRAVVSPSLNEHPYTKQLDEYIRLAE | -0.595
HMQIEQVDYGTFMTMIDDKKIDKVEIKDNQILFIGKDDNKKYKTGIVQDPQLAERLHASGAVFSQDI | 0.261
HMQIIGEQNQKDFIALFGAILRMRNLLLSFDEFKGNELISERDLQDYLGRYQDLRDEWRNKRRER | -0.0814

Sequence | soluble fraction (log2)
HMQINDSSVVQKAVNDVIDQNSKAVSDYWDGKEGAAKFLMGQVMKLTRGQANPDLANQLILTRLQQERV | 0.437
HMQISDEAALLAIVDRVIADNQGPLANYLGGKQSLLGWFVGQVMRATRGQAIPAVVNRLVGERLAAQREE | -0.877
HMQISDESQLREVVSKILEENEQSVIDYKNGKTRAMGFIIGQVMKATRGKANPQLVNEIVKEMLDE | 0.0956
HMQISDTASIQEIAKEIIKSNPKAVEDYKKGKENALQFLVGQLMTKTKGTVHPGAARTILGDILK | -0.0025
HMQISDTSELEAVVQDILKANMDVVAKIKAGKTNSANFLMGQVMKLTKGRAKPDTVLQLILDAVKQ | -0.943
HMQISLAAARVNAGLTQEEVAKAMKVGKQTIVSWEKGNSEPKMSQSRELSELYKIPLDYIFYP | -0.5
HMQITDSGAIETIIDKIIADNPGQVTQYLSGKDKVFGFFVGQTMKASQGKANPAEVNKILQEKLK | -0.0499
HMQITQSSEPIDVSALRLGMFIHLEGGWLSHPFPRSSFKITSEDQLVTLRSLGISVLRWSPELSDPE | -3.52
HMQIVPVDYSTFMQSIDDKTVDHVEIQSNQILYTVKDDHKKYKTGIMNDPTLAQRLMESGATFTQD | 0.12
HMQKAEQIGSLLREKRKSMGLTQDELAQQVEVRRQTLADLELGKNVGSHLLIKVMEHLGVGFDLL | -0.738
HMQKEIKVPDVANMALSEAVEKLQNEGFKVADEQKEVSSDEIEEGKVVKTSPVAGTKKTKGSEITIYISSG | 0.26
HMQKFLEATGENRDAAVENALEQLGLERDDVSVEVLEIGKKGFLGIGATPARVRVTYEAPDI | 0.197
HMQKKEVTVPEVRSKSLKEAAQILSEQNLKYETEPVNVENPDMVVIDQFPKPGGKISEQSVIILYLR | 0.697
HMQKLNIEEQIVYDIIFKNKELSANEIQIKSGIKTSILNALLINLEIKQYIKLKFGNFYEIK | 0.181
HMQKMPEMQILPNGKVKLPDFSGINMRKAAELLQYGKLRLQPYGSGTAYQQKPAAGTEVDEGTVVEIWF | -0.83
HMQKNFYQILGVDSKASPATINAAYERAKSRVIQSGLEDPDTMALLRDAWETLADPGDRAAYDESLAT | 0.0744
HMQKPELLAPAGSLEKAKTAFKYGADAVYMGTSNLSLRSRVTVDDDELIKTIEYAHSINKKVYAALNIYAR | 0.249
HMQKPWFYESSGQRKGGFSEQEMVGLITDGEITHGAIVWRNGLSDWTKLEQTELAAHLDKTA | -0.11
HMQKRDQKKRANMLDSLKVGTRIVTIGGIFGEIAKIKDDRIRIKVAEDVEIWIRRAAVGTVIT | -1.94
HMQKTPFEIMTIYKDQILEMLGKDLTATEISIVLKKKGEKVHPREIRKFQLQHYEEVQDMRKKWRE | -1.17
HMQKWILVNKQGRLSGILDHRAFNTRESATAWFQRTSDISGGTIKIDDYYYVLKNEEYKLLKE | -3.09
HMQKYEDIINVTRERLQNKFYSQTVIPTDDDIYIWLDKVAILEEIKLSKEDRQMLFNLLKKEAT | -1.35
HMQLGQMIVKLRKEQGLTQETFAKKFNVTRQTVSNWENEKSYPDLHTLVKISDEFHLSLDILLK | -3.14
HMQLGSILAYKFPQFGGIDGAWQVRDDSNGTGPYIAFWDAKTIGRGMPTEDELTAWAQEYEA | -0.206
HMQLPTPEDLKKRRNELGLTQSDLAKRAGVSQPLIARIESGDVDPRLSTVRKILDAFEEVEKEQQ | 0.0518
